Measurements as given in patent US20240218066A1, “USE OF ANTI-PD-1 ANTIBODY IN COMBINATION WITH FIRST-LINE CHEMOTHERAPY IN TREATMENT OF ADVANCED NON-SMALL CELL LUNG CANCER” (SHANGHAI JUNSHI BIOSCIENCES CO., LTD., priority 2021, published 2024).

How the values were obtained:
[1] = tested on: patients with untreated advanced NSCLC
Protocol: (§1) This is a randomized, double-blind, placebo-controlled, multicenter, phase III clinical study for assessing the efficacy and safety of toripalimab (JS001) or placebo in combination with first-line chemotherapy in patients with untreated advanced NSCLC and exploring the population with optimal biomarker prediction.
(§2) Toripalimab 240 mg/placebo was administered by intravenous infusion once every three weeks (Q3W) in cycles of 21 days, with treatment continued until the patients met the discontinuation criteria, i.e., recorded progressive disease, unacceptable AEs, investigator-assessed unsuitability for continued treatment, withdrawal of informed consent, 2 years of JS001 treatment, or other reasons as specified in the protocol.
(§3) The selection of cisplatin or carboplatin was at the discretion of the investigator.
(§4) Safety analysis set (SS): including all patients who received at least one dose of the study drug (JS001/placebo/chemotherapeutic agent).
(§5) Safety analysis was performed in SS and crossover treatment analysis sets, where safety data from the double-blind stage of the primary study and the crossover treatment stage were analyzed separately. Safety analyses include drug exposure, compliance, adverse events, laboratory examinations, vital signs, physical examinations, electrocardiogramaminations, ECOG scores, etc.
(§6) All safety analyses were based on the SS population (464 patients), including 308 patients in the test group and 156 patients in the control group. […] The primary safety analysis results based on the SS population in the double-blind stage of the primary study are as follows:

[2] = tested on: patients with untreated advanced NSCLC; experiment: Phase III clinical study, safety analysis (SS population); conditions: SS population, test group
Protocol: as §1, §2, §3, §4, §5, §6

JS001: humanized IgG4 anti-PD-1 mAb with light and heavy chain amino acid sequences SEQ ID NOs: 9 and 10
SAE judged by the investigator to be related to JS001: infectious pneumonia [1]: 1.6%
SAE judged by the investigator to be related to JS001: anemia [2]: 2.6%
SAE judged by the investigator to be related to JS001: immune-mediated hepatitis [2]: 1.0%
SAE judged by the investigator to be related to JS001: immune-mediated pneumonia [2]: 2.6%
SAE judged by the investigator to be related to JS001: interstitial lung disease [2]: 1.3%
SAE judged by the investigator to be related to JS001: leukopenia [2]: 1.0%
SAE judged by the investigator to be related to JS001: liver function abnormality [2]: 1.3%
SAE judged by the investigator to be related to JS001: neutropenia [2]: 1.9%
SAE judged by the investigator to be related to JS001: pulmonary inflammation [2]: 1.0%
SAE judged by the investigator to be related to JS001: thrombocytopenia [2]: 2.3%
